{
  "source": "patent US20110301093",
  "proteins": {"B1": {"name": "DAPk's catalytic domain (DK1) (protein)", "chain": "MTVFRQENVDDYYDTGEELGSGQFAVVKKCREKSTGLQYAAKFIKKRRTKSSRRGVSREDIEREVSILKEIQHPNVITLHEVYENKTDVILILELVAGGELFDFLAEKESLTEEEATEFLKQILNGVYYLHSLQIAHFDLKPENIMLLDRNVPKPRIKIIDFGLAHKIDFGNEFKNIFGTPEFVAPEIVNYEPLGLEADMWSIGVITYILLSGASPFLGDTKQETLANVSAVNYEFEDEYFSNTSALAKDFIRRLLVKDPKKRMTIQDSLQHPWIKPKDTQQALS"}, "B2": {"name": "Flag-tagged DAPk (protein)", "chain": "MTVFRQENVDDYYDTGEELGSGQFAVVKKCREKSTGLQYAAKFIKKRRTKSSRRGVSREDIEREVSILKEIQHPNVITLHEVYENKTDVILILELVAGGELFDFLAEKESLTEEEATEFLKQILNGVYYLHSLQIAHFDLKPENIMLLDRNVPKPRIKIIDFGLAHKIDFGNEFKNIFGTPEFVAPEIVNYEPLGLEADMWSIGVITYILLSGASPFLGDTKQETLANVSAVNYEFEDEYFSNTSALAKDFIRRLLVKDPKKRMTIQDSLQHPWIKPKDTQQALSRKASAVNMEKFKKFAARKKWKQSVRLISLCQRLSRSFLSRSNMSVARSDDTLDEEDSFVMKAIIHAINDDNVPGLQHLLGSLSNYDVNQPNKHGTPPLLIAAGCGNIQILQLLIKRGSRIDVQDKGGSNAVYWAARHGHVDTLKFLSENKCPLDVKDKSGEMALHVAARYGHADVAQLLCSFGSNPNIQDKEEETPLHCAAWHGYYSVAKALCEAGCNVNIKNREGETPLLTASARGYHDIVECLAEHGADLNACDKDGHIALHLAVRRCQMEVIKTLLSQGCFVDYQDRHGNTPLHVACKDGNMPIVVALCEANCNLDISNKYGRTPLHLAANNGILDVVRYLCLMGASVEALTTDGKTAEDLARSEQHEHVAGLLARLRKDTHRGLFIQQLRPTQNLQPRIKLKLFGHSGSGKTTLVESLKCGLLRSFFRRRRPRLSSTNSSRFPPSPLASKPTVSVSINNLYPGCENVSVRSRSMMFEPGLTKGMLEVFVAPTHHPHCSADDQSTKAIDIQNAYLNGVGDFSVWEFSGNPVYFCCYDYFAANDPTSIHVVVFSLEEPYEIQLNQVIFWLSFLKSLVPVEEPIAFGGKLKNPLQVVLVATHADIMNVPRPAGGEFGYDKDTSLLKEIRNRFGNDLHISNKLFVLDAGASGSKDMKVLRNHLQEIRSQIVSVCPPMTHLCEKIISTLPSWRKLNGPNQLMSLQQFVYDVQDQLNPLASEEDLRRIAQQLHSTGEINIMQSETVQDVLLLDPRWLCTNVLGKLLSVETPRALHHYRGRYTVEDIQRLVPDSDVEELLQILDAMDICARDLSSGTMVDVPALIKTDNLHRSWADEEDEVMVYGGVRIVPVEHLTPFPCGIFHKVQVNLCRWIHQQSTEGDADIRLWVNGCKLANRGAELLVLLVNHGQGIEVQVRGLETEKIKCCLLLDSVCSTIENVMATTLPGLLTVKHYLSPQQLREHHEPVMIYQPRDFFRAQTLKETSLTNTMGGYKESFSSIMCFGCHDVYSQASLGMDIHASDLNLLTRRKLSRLLDPPDPLGKDWCLLAMNLGLPDLVAKYNTSNGAPKDFLPSPLHALLREWTTYPESTVGTLMSKLRELGRRDAADFLLKASSVFKINLDGNGQEAYASSCNSGTSYNSISSVVSR"}},
  "key": {"[1]": {"molecular_target": "T1, peptide corresponding to Beclin's BH3 domain (aa 108-127)", "T1 chain": "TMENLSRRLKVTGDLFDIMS"}, "[2]": {"molecular_target": "T2, mutant BH3 peptide in which Thr119 was substituted to alanine (T119A)", "T2 chain": "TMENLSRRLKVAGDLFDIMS"}, "[3]": {"molecular_target": "GST-Beclin-1", "sequence (chain, as listed by the source)": "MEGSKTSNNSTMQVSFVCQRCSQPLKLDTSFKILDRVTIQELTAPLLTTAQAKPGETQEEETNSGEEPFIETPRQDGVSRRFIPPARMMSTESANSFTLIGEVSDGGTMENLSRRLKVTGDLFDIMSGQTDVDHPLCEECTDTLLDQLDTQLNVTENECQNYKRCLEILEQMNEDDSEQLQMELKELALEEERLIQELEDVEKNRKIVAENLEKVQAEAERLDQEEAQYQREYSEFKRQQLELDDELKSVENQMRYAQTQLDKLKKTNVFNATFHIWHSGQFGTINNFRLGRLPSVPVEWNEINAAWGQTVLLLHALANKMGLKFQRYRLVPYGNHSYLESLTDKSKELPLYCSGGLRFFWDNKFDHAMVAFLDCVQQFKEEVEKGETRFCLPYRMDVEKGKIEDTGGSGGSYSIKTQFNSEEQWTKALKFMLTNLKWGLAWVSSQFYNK"}, "[4]": {"molecular_target": "Flag-tagged Beclin-1", "sequence (chain, as listed by the source)": "as above"}},
  "data": [
    {"protein": "B1", "values": [
      {"measurement": "peptide phosphorylation, filter assay (total counts against substrate concentration)", "setting": "[1]", "result": "DAPk phosphorylates Beclin's BH3 peptide in a dose-dependent manner"},
      {"measurement": "peptide phosphorylation, filter assay", "setting": "[2]", "result": "Changing Thr119 to alanine strongly inhibited the extent of peptide phosphorylation"}
    ]},
    {"protein": "B2", "values": [
      {"measurement": "in vitro kinase assay, phosphorylation ([γ-33P]ATP, autoradiogram)", "setting": "[3]", "result": "GST-Beclin-1, but not GST alone, was phosphorylated by DAPk"},
      {"measurement": "in vitro kinase assay, phosphorylation ([γ-33P]ATP, autoradiogram)", "setting": "[4]", "result": "The phosphorylation by Flag-tagged (60 ng) DAPk was also observed when Flag-tagged Beclin-1 (250 ng), immunoprecipitated from HEK293T cells, was used as a substrate"}
    ]}
  ]
}
